Test results from publication doi:10.1101/2023.10.23.563578.

Molecular target: recombinant Ena3A (major subunit of L-ENA fibers) (Bacillus paranthracis NVH 0075-95)
Test: cryo-EM structure

## recombinant Ena3A (major subunit of L-ENA fibers) (natural protein)
  stoichiometry N: 7
